Changes are numbered by the printed parent chain. In names and notes the source's numbering stands. Entries after “also recorded” stand apart in the source; their conditions may differ.
B1: Tat-PSD-95 PDZ2: His-tagged fusion peptide: HIV Tat minimal transduction domain (residues 47-57) fused to the second PDZ domain of PSD-95 (protein)
chain: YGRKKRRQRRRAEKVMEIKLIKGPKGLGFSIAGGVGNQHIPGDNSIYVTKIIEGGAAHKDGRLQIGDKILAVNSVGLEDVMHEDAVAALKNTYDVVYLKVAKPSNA
B2: mutated Tat-PSD-95 PDZ2: Control fusion peptide: Tat-PSD-95 PDZ2 with three sites critical for NMDAR/PSD-95 interaction mutated (K165T, L170R and H182L) (protein)
chain: B1 chain with K22T, L27R, H39L

Experiments:
[1] = Tests for locomotor function (placing, grasping, righting reflexes); format: in vivo, mouse; conditions: unanesthetized mice, 4 h after intraperitoneal injection, vs vehicle
Text: Tests for Locomotor Function. Four hours after intraperitoneal injection of Tat fusion peptides, their effects on locomotor function were examined with the following tests as described previously (Coderre and Van, 1,1994; Tao, et al., 2003a). 1) Placing reflex: The mouse was held with hind limbs slightly lower than forelimbs and the dorsal surface of the hind paws was brought into contact with the edge of a table. The experimenter recorded whether the mouse placed its hind paws on the table surface reflexively; 2) Grasping reflex: The mouse was placed on a wire grid and the experimenter recorded whether the hind paws grasped the wire on contact; and 3) Righting reflex: The mouse was placed on its back on a flat surface and the experimenter noted whether it immediately assumed the normal upright position.
The effects of Tat fusion peptides on locomotor function were examined 4 h after intraperitoneal injection. The following tests were performed as described previously^23. 1) Placing reflex: The mouse was held with hind limbs slightly lower than forelimbs, and the dorsal surface of the hind paws was brought into contact with the edge of a table. The experimenter recorded whether the mouse placed its hind paws on the table surface reflexively; 2) Grasping reflex: The mouse was placed on a wire grid, and the experimenter recorded whether the hind paws grasped the wire on contact.

cultured spinal neurons = assay: In vitro delivery of Tat fusion peptide in cultured spinal neurons (Western blot, anti-His antibody); format: cell-based; conditions: 10 μM peptide, 30 min incubation, cultured mouse spinal neurons
Protocol: In Vitro Delivery of Tat Fusion Peptide in Cultured Spinal Neurons. The intracellular delivery of Tat fusion peptide was assessed by Western blot analysis 30 min after application of 10 μM Tat-PSD-95 PDZ2 to cultured spinal neurons. The same dose of PSD-95 PDZ2 without Tat served as a control. Spinal cord neuronal cultures were prepared as previously described (O'Brien, et al., 1997) with minor modification. In brief, embryonic day 14 mouse spinal cord was digested for 45 min at 34° C. Cells were gently dissociated with a 5-ml pipette, filtered through a 70-μm filter, and centrifuged through a solution of 1% soybean trypsin inhibitor and 1% bovine serum albumin at 80×g for 10 min. High-density cultures were plated at 2 million cells/60-mm dish. Cell lysates from high-density cultures were solubilized in 1% Triton X-100/0.2% sodium dodecyl sulfate (SDS) and subjected to SDS-polyacrylamide gel electrophoresis (SDS-PAGE). Proteins were immunoblotted with monoclonal anti-His antibody (Sigma) and visualized with enhanced chemiluminescence (Amersham Biosciences, Piscataway, N.J.).

[2] = Baseline paw withdrawal threshold after peptide injection; format: in vivo, mouse; conditions: mice without CFA, vs vehicle
Protocol: Behavioral Analysis. Mechanical sensitivity of the mice was measured with von Frey filaments (Stoelting, Wood Dale, Ill.) as described previously (Yang and Gereau, 2003). Mice were placed in Plexiglas testing boxes with a 1×1 cm^2 wire-mesh grid floor and habituated for 3 h before experiments. Each von Frey filament was applied to the mouse hind paw in ascending order until it bent at approximately 30° for about 3 s. The smallest filament that evoked a paw withdrawal response was taken as the mechanical threshold (paw withdrawal threshold). Similar sites were selected for measuring mechanical thresholds in all tested animals, and the thresholds were measured at approximately the same site throughout the experiment for each individual animal. Two to three measurements were made before CFA or fusion peptides injection, and the average was calculated as the baseline. Established inflammatory pain behaviors were induced by intraplantar injection of CFA solution (20 μl, 1 mg/ml). […] The effect of Tat fusion peptide on CFA-induced established inflammatory pain behaviors was expressed as % of baseline.

[3] = target: T1, interactions between NMDA receptor NR2B and PSD-95 protein (Mus musculus, UniProt Q01097); assay: In vitro binding assay (GST pull-down) with GST-PSD-95 PDZ1,2 and spinal membrane fraction; conditions: for effect on interactions between GST-PSD-95 PDZ1,2 and NR2B (amount of NR2B pulled down): preincubation with different doses of peptide, 30 min; for effect on interactions between NMDAR NR2 subunits and PSD-95: summary of GST pull-down and co-immunoprecipitation (FIG. 2)
T1 construct: from tissue; host or cells: NR2B: solubilized membrane fraction of mouse spinal lumbar enlargement
T1 sequence (Q01097 27-1482, other chains not shown): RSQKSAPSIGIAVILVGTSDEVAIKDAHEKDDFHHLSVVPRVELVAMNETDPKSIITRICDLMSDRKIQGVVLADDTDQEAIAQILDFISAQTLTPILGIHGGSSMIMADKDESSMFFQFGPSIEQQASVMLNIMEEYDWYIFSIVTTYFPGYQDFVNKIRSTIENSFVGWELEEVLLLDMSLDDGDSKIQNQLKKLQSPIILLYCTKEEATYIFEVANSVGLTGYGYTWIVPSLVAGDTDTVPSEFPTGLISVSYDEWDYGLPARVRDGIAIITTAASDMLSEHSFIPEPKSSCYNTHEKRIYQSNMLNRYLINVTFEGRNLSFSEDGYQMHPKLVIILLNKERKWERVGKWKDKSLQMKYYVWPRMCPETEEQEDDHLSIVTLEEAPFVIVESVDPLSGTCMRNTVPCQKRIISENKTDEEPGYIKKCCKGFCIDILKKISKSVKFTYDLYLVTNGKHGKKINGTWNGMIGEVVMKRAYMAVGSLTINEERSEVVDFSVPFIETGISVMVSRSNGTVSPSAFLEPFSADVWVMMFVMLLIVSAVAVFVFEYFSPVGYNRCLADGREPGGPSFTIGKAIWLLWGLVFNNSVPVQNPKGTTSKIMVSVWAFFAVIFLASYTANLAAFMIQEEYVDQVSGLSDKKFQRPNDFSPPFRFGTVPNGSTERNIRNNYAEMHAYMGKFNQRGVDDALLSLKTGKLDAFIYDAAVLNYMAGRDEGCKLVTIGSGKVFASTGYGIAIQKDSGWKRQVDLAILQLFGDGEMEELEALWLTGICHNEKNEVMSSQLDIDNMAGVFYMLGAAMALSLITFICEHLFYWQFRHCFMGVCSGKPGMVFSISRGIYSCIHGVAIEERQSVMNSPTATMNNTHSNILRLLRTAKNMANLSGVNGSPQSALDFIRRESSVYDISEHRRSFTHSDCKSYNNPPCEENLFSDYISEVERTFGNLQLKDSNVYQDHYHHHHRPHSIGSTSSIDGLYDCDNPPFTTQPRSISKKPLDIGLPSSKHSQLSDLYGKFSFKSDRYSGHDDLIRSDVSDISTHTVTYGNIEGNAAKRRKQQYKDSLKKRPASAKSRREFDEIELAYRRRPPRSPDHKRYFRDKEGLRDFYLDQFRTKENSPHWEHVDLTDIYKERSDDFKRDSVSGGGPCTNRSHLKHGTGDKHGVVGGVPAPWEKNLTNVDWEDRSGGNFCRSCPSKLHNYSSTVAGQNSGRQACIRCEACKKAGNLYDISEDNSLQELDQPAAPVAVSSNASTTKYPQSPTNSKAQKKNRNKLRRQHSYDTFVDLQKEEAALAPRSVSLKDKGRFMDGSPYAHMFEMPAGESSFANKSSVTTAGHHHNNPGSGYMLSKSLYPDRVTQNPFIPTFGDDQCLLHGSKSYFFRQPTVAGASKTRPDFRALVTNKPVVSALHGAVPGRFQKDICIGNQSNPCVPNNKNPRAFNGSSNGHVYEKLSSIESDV
Protocol: In Vitro and In Vivo Binding Assays. […] Membrane-bound proteins from the spinal lumbar enlargement segments were extracted as described previously (Tao, et al., 2003a). For in vitro binding experiments (GST pull-down), the solubilized membrane fraction and GST fusion peptide were first preincubated with different concentrations of Tat-PSD-95 PDZ2 at room temperature for 30 min. Then the membrane fraction was mixed with the GST fusion peptide at room temperature for 1 h. The resin was washed five times with washing buffer (PBS plus 500 mM NaCl and 0.1% Triton X-100) and then boiled in 1×SDS-PAGE sample buffer to elute the bound proteins. After being separated by electrophoresis, the proteins were detected by immunoblotting with anti-GST antibody (Santa Cruz Biotechnology, Santa Cruz, Calif.) and anti-NR2B antibody (Upstate Biotechnology, Lake Placid, N.Y.). For in vivo binding experiments (co-immunoprecipitation), 5 μg of the affinity-purified rabbit NR2A/2B antibody (Chemicon, Temecula, Calif.) was incubated with 100 μl of protein A-Sepharose slurry for 1 h, and the complex was spun down at 2000 rpm for 4 min. The solubilized membrane fraction (500 μg) from the different groups of treated mice as mentioned-above then was added to the Sepharose beads, and the mixture was incubated for 2-3 h at 4° C. The mixture was washed once with 1% Triton X-100 in immunoprecipitation buffer [containing (in mM): 137 sodium chloride, 2.7 potassium chloride, 4.3 disodium hydrogen phosphate, 1.4 potassium dihydrogen phosphate, 5 ethylene glycol tetraacetic acid, 1 sodium vanadate, 10 sodium pyrophosphate, 50 sodium fluoride, 0.1 phenylmethylsulfonyl fluoride, and 20 U/ml Trasylol], twice with 1% Triton X-100 in immunoprecipitation buffer plus 300 mM sodium chloride, and three times with immunoprecipitation buffer. The proteins were separated by SDS-PAGE and detected by NR2A/2B or PSD-95 antibody (Upstate Biotechnology, Lake Placid, N.Y.). As a positive control (input), 50 μg of the solubilized membrane fraction was loaded onto the gel.

Row | Molecule | effect on locomotor function (placing, grasping, righting reflexes) [1] | His-peptide detected in neurons (intracellular delivery), Western blotting with anti-His antibody (cultured spinal neurons) | effect on baseline paw withdrawal threshold [2] | effect on NR2B being pulled down at high dose ([3]; 16 μg peptide) | effect on interactions between GST-PSD-95 PDZ1,2 and NR2B (amount of NR2B pulled down) [3] | effect on interactions between NMDAR NR2 subunits and PSD-95 [3]
1 | B1 | no effect; also recorded: did not show any effect | detected only; also recorded: only detected | no significant effect | completely prevented | dose-dependently inhibited; also recorded: dose-dependently reduced | markedly disrupted
2 | B2 |  |  |  |  | no effect | no effect

— US20100204100A1, “BIOLOGICAL AGENTS ACTIVE IN CENTRAL NERVOUS SYSTEM” (THE JOHNS HOPKINS UNIVERISTY, priority 2007, published 2010)
